# Entries after “also recorded” stand apart in the source; their conditions may differ. Where a name gives a salt, the structure may show the parent alone. Bridges are numbered along the chain shown (N, C = ends). Where no end group is shown, it is not given here.
# Key:
# thrombin [1] = target: T1, thrombin (Homo sapiens, UniProt P00734); assay: Thrombin inhibition testing: clotting activity of 10 IU/ml thrombin towards fibrinogen in the presence of the additive; type: biochemical; conditions: for inhibition of thrombin activity: 0.5 mM additive; for inhibition of thrombin activity / reduction/inhibition of thrombin activity: 10 IU/ml thrombin
# T1 construct: yields the active alpha thrombin molecule which is a 295 amino acid polypeptide (human) composed of a heavy and light chain
# Procedure: (§1) Thrombin activity was assessed by clotting time measurements using STart4 Coagulation Instrument (DIAGNOSTICA STAGO™, Asnieres sur Seine, France). The assay is a modification of the European Pharmacopoeia Assay procedure, 1997, 0903, p. 858. Briefly, a calibration curve was prepared by mixing thrombin standard with a fibrinogen solution of 0.1% fibrinogen content (Enzyme Research Laboratories, Ind., USA). Thrombin concentration in the different tested samples was then calculated from the calibration curve by their clotting time (the concentration was extrapolated from the calibration curve).
# For inhibition testing, the clotting activity of 10 IU/ml thrombin was measured in the presence or absence of peptides.
# The assay was carried out as described in Example 1.
# thrombin [2] = target: T1, thrombin; assay: Thrombin stability testing: remaining clotting activity of 1000 IU/ml liquid thrombin after storage at 37° C.; type: biochemical; conditions: for maintaining thrombin activity compared with 0.5 mM gamma loop peptide (in words): 3% (w/v) arginine; for stabilization of thrombin activity (in words): 0.5 mM peptide, 1000 IU/ml thrombin, 37° C., 0, 3 and 7 days
# Procedure: Aqueous liquid thrombin, in its purified and concentrated form 1000 international units IU/ml may undergo autolysis at room temperature causing a significant loss of activity e.g. towards a heterologous substrate. E.g. thrombin activity towards a heterologous substrate is reduced when a liquid thrombin formulation is incubated at room temperature for prolonged periods of time (e.g. 72 to 144 hours), inter alia, due to autolytic degradation. The decrease of thrombin activity towards a heterologous substrate in aqueous liquid solution can be assessed by measuring thrombin activity after prolonged periods of time and under permissive temperature (e.g. 37° C.). In the following experiments, the effect of a peptide on the stability of thrombin was studied under different conditions.
# Aqueous liquid purified and concentrated thrombin (1000 IU/ml; equivalent to about 10 μM) was aliquoted and placed in a 37° C. incubator for 3 days (72 hours), 7 days (168 hours) and 14 days (336 hours). Prior to incubation, thrombin samples were spiked with indicated amounts of different tested peptides or with a control thrombin inhibitor: benzamidine or arginine *HCl (“arginine”). Specific peptides, their concentrations, and thrombin inhibitors used are indicated in each Example. Following the incubation period, the samples were frozen at −80° C. until testing the thrombin activity. Just before thrombin activity assay testing, all the samples were thawed and 100-fold diluted into a dilution buffer (0.4% tri-sodium citrate di-hydrate, 0.9% sodium chloride and 1% BSA, pH=7.5) to bring the thrombin concentration in the sample to that within the specifications of the assay (4-10 IU/ml) and to dilute the tested peptides in the sample to a negligible concentration.
# as §1
# For stability testing of 1000IU/ml thrombin following storage with or without peptides, testing was carried out as described above. Dilutions (1:100) were carried out before measuring the activity.
# All of these peptides (“mutant gamma loop peptides” identified in Example 3, random peptides, thrombin derived peptides, and “gamma loop binding peptides” mentioned above) were tested for their ability to stabilize thrombin activity at a concentration of 0.5 mM as described in Example 2.
# gamma loop of thrombin = target: T2, gamma loop of thrombin (Homo sapiens, UniProt P00734); assay: Peptide microarray binding screen with fluorescent gamma loop peptide; conditions: scale 0-65535
# T2 construct: Fluorescein-labeled cyclic gamma-loop derived peptide; made in house; host or cells: chemical synthesis
# Procedure: Based on the results disclosed in Example 2, the gamma loop peptide was used as a bait to find additional peptides which may positively affect the stability of thrombin. For this purpose, a binding screen was carried out using a fluorescent gamma loop peptide incubated with several peptide arrays.
# (§2) A library of 1,676 15-meric peptides spanning the sequences of proteins interacting with the gamma loop of thrombin such as thrombin itself, anti-thrombin III (ATIII), thrombomodulin, heparin cofactor II, bovine pancreatic trypsin inhibitor (BPTI), and hirudin, and modifications of the thrombin gamma loop sequence were generated. Peptides were synthesized using SPOT synthesis (Wenschuh H, et al. (2000). Coherent membrane supports for parallel microsynthesis and screening of bioactive peptides. Biopolymers 55:188-206) and were chemoselectively immobilized onto functionalized glass slides as described (Panse S, et al. (2004) Profiling of generic anti-phosphopeptide antibodies and kinases with peptide microarrays using radioactive and fluorescence-based assays. Mol Divers 8:291-299.2.). Each peptide was printed in triplicates onto the microarray. For binding studies, 100 μg of purified thrombin (Omrix biopharmaceuticals) were directly labeled with DYLIGHT® 650 Microscale Antibody Labeling Kits, THERMO SCIENTIFIC™ (#84536) and diluted in blocking buffer SUPERBLOKTM T20 (TBS) Blocking Buffer, THERMO SCIENTIFICTM (#37536). The microarrays were incubated with 10 μg/ml DYLIGHT® 650-Thrombin or a Fluorescein-labeled cyclic gamma-loop derived peptide for one hour at 30° C. in a HS4800™ microarray processing station (Tecan) (Masch A, et al., (2010) Antibody signatures defined by high-content peptide microarray analysis. Methods Mol Biol 669:161-172).
# (§3) Microarrays were washed with 0.1% TWEEN®20 in 1× TBS followed by 0.05% TWEEN®20 in 0.1× SSC and dried in a stream of nitrogen. Each microarray was scanned using GENEPIX® Autoloader 4200AL (Molecular Devices, Pixel size: 10 μm). Signal intensities were evaluated using spot recognition software GENEPIX® Pro 7.0 analysis software (Molecular Devices). For each peptide, the mean signal intensity of the three triplicates was extracted. Further evaluation and representation of results was performed using the statistical computing and graphics software R (Version 2.11.1, www.r-project.org).
# (§4) One array included peptides based on the thrombin sequence. Any peptide isolated from this library may reflect possible regions in the thrombin protein that may interact with the gamma loop. […] The fluorescence for the strongest binding candidates (hits) was quantified on an arbitrary scale of 0-65535 (2^16). Thrombin activity was assesed as described in Example 1.
# thrombin [3] = target: T1, thrombin; assay: Peptide microarray binding with fluorescently labelled thrombin; conditions: for Binding intensity of thrombin (100 μg/ml): DYLIGHT 650-Thrombin; for binding to thrombin (in words): fluorescent thrombin
# Procedure: A screen was carried out to identify gamma loop mutants that may show improved binding to thrombin. This was carried out with fluorescent thrombin on an array of gamma loop peptide mutants. Three such cyclized peptides with the highest binding efficiency were tested for their capacity to stabilize thrombin without compromising thrombin activity towards fibrinogen (see Example 4 below).
# as §2, with “The microarrays were incubated with 10 μg/ml DYLIGHT® 650-Thrombin or a Fluorescein-labeled” left out
# as §3, §4
Compound,stabilization of thrombin activity (in words) (thrombin [2]),Binding intensity of gamma loop (gamma loop of thrombin),Binding intensity of thrombin (100 μg/ml) (thrombin [3]),further results
N=C(N)c1ccccc1 [Benzamidine],,,,inhibition of thrombin activity (thrombin [1]): 20%
"N=C(N)NCCC[C@H](N)C(=O)O [arginine, arginine*HCl]",,,,"reduction/inhibition of thrombin activity (thrombin [1]; 0.5% (w/v) arginine): about 50%; reduction/inhibition of thrombin activity (thrombin [1]; 0.5% (w/v) arginine, listed as Arginine): 50%; reduction/inhibition of thrombin activity (thrombin [1]; 2% (w/v) arginine): > 95%; inhibition of thrombin (in words) (thrombin [1]; 3% (w/v) arginine, extrapolated from FIG. 2A): inhibit thrombin almost entirely; thrombin activity following storage (in words) (thrombin [2]; 0.5-5% (w/v) arginine, concentrated thrombin, up to 48 hours at 37° C.): maintained thrombin activity following storage; maintaining thrombin activity compared with 0.5 mM gamma loop peptide (in words) (thrombin [2]; 72 hours at 37° C.): not more effective; maintaining thrombin activity compared with 0.5 mM gamma loop peptide (in words) (thrombin [2]; 144 hours at 37° C.): only marginally so"
"CKETWTANVGKC (disulfide 1-12 (inferred)) [SEQ ID NO:3, gamma loop peptide cyclized with terminal cysteine residues]",efficient stabilization of thrombin activity; also recorded: capable of stabilizing liquid aqueous thrombin,,,
"CKETWTAYVGKC (disulfide 1-12 (inferred)) [SEQ ID NO:5, cyclized mutant gamma loop peptide]",inefficient,,,
"CKNTWTANVGKC (disulfide 1-12 (inferred)) [SEQ ID NO:4, cyclized mutant gamma loop peptide]",inefficient,,,
"ISMLEKIYIHPRYNW [Thr_111, thrombin derived peptide]",increased thrombin degradation; also recorded: destabilization effect,32804 arbitrary units,60199,binding to thrombin (in words) (thrombin [3]): strongest interaction with thrombin
KETWTANVGK [SEQ ID NO:1],,,,inhibition of thrombin activity (thrombin [1]): about 20%
LGNKKFVSGSRFVST [Rnd_inter_316],,26628 arbitrary units,12353,inhibition of thrombin activity (in words) (thrombin [1]; any concentration tested): absolutely no inhibition; stabilization of thrombin activity (in words) (thrombin [2]; listed as SEQ ID NO:12): some stabilization effect; also recorded: capable of stabilizing liquid aqueous thrombin
"RIRITDNMFSAGYKP [Thr_136_CS, thrombin derived peptide, Cysteine replaced by Serine]",least effective; also recorded: weaker stabilization effect,25278 arbitrary units,5535,binding to thrombin (in words) (thrombin [3]): weakest fluorescent signal; stabilization of thrombin activity (in words) (thrombin [2]; listed as SEQ ID NO:11): capable of stabilizing liquid aqueous thrombin
SHNQRFVTYLGSKLG [Rnd_inter_155],,19539 arbitrary units,23646,stabilization of thrombin activity (in words) (thrombin [2]; listed as SEQ ID NO:13): some stabilization effect; also recorded: capable of stabilizing liquid aqueous thrombin
"WCYVAGKPGDFGYCD [Thr_069, thrombin derived peptide]",minimal effect on thrombin stability; also recorded: weaker stabilization effect,50553 arbitrary units,3141,binding to thrombin (in words) (thrombin [3]): very weak binding to thrombin; stabilization of thrombin activity (in words) (thrombin [2]; listed as SEQ ID NO:7): capable of stabilizing liquid aqueous thrombin

# More lines, main results first:
stabilization of thrombin activity (in words) (thrombin [2]),Binding intensity of gamma loop (gamma loop of thrombin),Binding intensity of thrombin (100 μg/ml) (thrombin [3]),Compound,further results
inefficient,,,"CKETWTANVLKC (disulfide 1-12 (inferred)) [SEQ ID NO:6, cyclized mutant gamma loop peptide]",
some stabilization effect,40787 arbitrary units,18537,"NITRSGIESQLWRSR [Thr_031_CS, thrombin derived peptide, Cysteine replaced by Serine]",stabilization of thrombin activity (in words) (thrombin [2]; listed as SEQ ID NO:9): capable of stabilizing liquid aqueous thrombin
some stabilization effect,35117 arbitrary units,15079,"SGIESQLWRSRYPHK [Thr_032_CS, thrombin derived peptide, Cysteine replaced by Serine]",stabilization of thrombin activity (in words) (thrombin [2]; listed as SEQ ID NO:10): capable of stabilizing liquid aqueous thrombin

# Reference: patent US10435681B2, “Compounds and methods for stabilizing thrombin activity” (Omrix Biopharmaceuticals Ltd., priority 2013, dated 2019)
